This assay concerns the target T1, Bfd (Pseudomonas aeruginosa, UniProt Q9HY80).
T1 chain: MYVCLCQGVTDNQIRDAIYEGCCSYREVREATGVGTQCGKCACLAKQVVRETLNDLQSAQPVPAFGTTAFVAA
In words: SPR. (In general: In SPR one partner is held on a chip, and binding of the other changes the refractive index at the surface.)

B1: BfrB (protein)
chain: not shown
modifications: apo-BfrB (heme-free)
By Kd is commonly meant the equilibrium constant for the complex coming apart. For the molecule B1, binding was put at a Kd of 3.1 µM. This lies in the single-digit micromolar range.

The values above are taken from paper PMC6535718 (2019).
